Experimental data from PMC5460017, “Regulated membrane remodeling by Mic60 controls formation of mitochondrial crista junctions” (Nature Communications, 2017).
Bridge positions count the residues as written; N and C are the ends. Ends that are not written are not given here.

T1: Mic60solΔLBS1 (Chaetomium thermophilum Mic60sol with an internal deletion of LBS1) (Chaetomium thermophilum)
T1 chain: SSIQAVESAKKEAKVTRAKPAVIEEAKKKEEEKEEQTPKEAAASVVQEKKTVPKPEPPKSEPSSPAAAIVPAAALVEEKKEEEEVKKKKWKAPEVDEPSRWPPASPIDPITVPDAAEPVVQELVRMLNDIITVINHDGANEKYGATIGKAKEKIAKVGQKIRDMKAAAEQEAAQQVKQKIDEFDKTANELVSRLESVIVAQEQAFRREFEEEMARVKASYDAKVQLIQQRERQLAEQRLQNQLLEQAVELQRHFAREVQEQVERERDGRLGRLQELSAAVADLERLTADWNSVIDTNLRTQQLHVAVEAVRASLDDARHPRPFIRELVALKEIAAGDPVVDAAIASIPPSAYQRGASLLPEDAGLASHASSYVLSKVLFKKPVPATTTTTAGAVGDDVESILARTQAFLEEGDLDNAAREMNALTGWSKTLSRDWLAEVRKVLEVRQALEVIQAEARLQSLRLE

B1: Mic60solΔLBS1 (Chaetomium thermophilum Mic60sol with an internal deletion of LBS1) (domain or fragment)
chain: SSIQAVESAKKEAKVTRAKPAVIEEAKKKEEEKEEQTPKEAAASVVQEKKTVPKPEPPKSEPSSPAAAIVPAAALVEEKKEEEEVKKKKWKAPEVDEPSRWPPASPIDPITVPDAAEPVVQELVRMLNDIITVINHDGANEKYGATIGKAKEKIAKVGQKIRDMKAAAEQEAAQQVKQKIDEFDKTANELVSRLESVIVAQEQAFRREFEEEMARVKASYDAKVQLIQQRERQLAEQRLQNQLLEQAVELQRHFAREVQEQVERERDGRLGRLQELSAAVADLERLTADWNSVIDTNLRTQQLHVAVEAVRASLDDARHPRPFIRELVALKEIAAGDPVVDAAIASIPPSAYQRGASLLPEDAGLASHASSYVLSKVLFKKPVPATTTTTAGAVGDDVESILARTQAFLEEGDLDNAAREMNALTGWSKTLSRDWLAEVRKVLEVRQALEVIQAEARLQSLRLE
modifications: His6 tag removed; outer limits 208-691 printed; LBS1 = 563-582 deduced from the printed truncations ending at 562 (no LBS) and 582 (LBS1 kept); check residues lie in the deleted segment and only …

Experiments:
[1] = biological target: T2, Mic60sol (Chaetomium thermophilum Mic60, residues 208–691) (Chaetomium thermophilum); test: ITC; about 450 μM Mic19 construct in the syringe titrated into about 40 μM Mic60 construct in the cell; 10 °C; 20 mM HEPES/NaOH pH 7.5, 150 mM NaCl; untagged proteins; conditions: both partners purified
T2 construct: Mic60 of Chaetomium thermophilum, UniProt G0SHY5, residues 208-691; codon-optimized synthetic cDNA in a modified pET28a; source: E. coli BL21 DE3, purified (Ni-NTA, His6 tag cleaved with PreScission protease, size-exclusion chromatography); not shown: His6, N-terminal, cleaved

[2] = biological target: T1, Mic60solΔLBS1 (Chaetomium thermophilum …); test: native gel or EMSA; blue native (BN)-PAGE of purified Mic60 constructs; conditions: both partners purified

Binder | Kd [1] [nM] | stoichiometry N [1] | stoichiometry N [2]
RPLPESVEKARSEVVRCLREHDRRPLNCWQEVEAFKEEVRKLEKGWVDK (domain or fragment, disulfide 17-28) [isolated CHCH domain of Mic19 (Chaetomium thermophilum)] | 390 | 0.77 ± 0.01 | 
B1 |  |  | 2
